Reference: patent US7264809B1, “Methods of inhibiting platelet activation and recruitment” (Immunex Corporation, priority 1998, dated 2007)

Key:
[1] = Phosphate release assay for ATPase activity; assay type: biochemical; conditions: for ATPase activity, CPM × 10^3 (net counts): Table 3, 5-day 1× COS-1 sups
Method: This example describes an ATPase assay that may be used to track enzyme activity. Samples (approximately 100 μl of either concentrated CM or purified polypeptide) are combined with 20 μl of 10× assay buffer (200 mM HEPES, 1.2 M NaCl, 50 mM KCl, 15 mM CaCl2, 15 mM MgCl2 and 3 mM ATP) and sterile water is added to a final volume of 200 μl. Radiolabeled ATP (0.8 μCi γ [^32P] ATP; Amersham, Arlington Heights, Ill.) is added and the mixture incubated for 20 minutes at 37° C. […] After centrifugation (14K rpm for 10 minutes), the supernatant is assayed for free ^32P using a scintillation counter. Data are expressed as raw counts or net counts, or as picomoles of ATP degraded per minute. […] The transfections were repeated and the CM (10, 20 and 30 μL, unconcentrated) was assayed essentially as described in Example 7. […] ATPase levels in CM from COS-1 cells transfected with pIL2LFlagSolCD39 increased with time in culture over at least 4 days post-transfection. To determine whether activity was affected by removal of the N-terminal FLAG® tag, COS-1 cells were transfected with pIL2LFlagSolCD39 and pIL2LSolCD39 and supernatants (sups) were harvested after 5 days. Samples of 10, 20 and 30 μL of 1× sups were assayed for ATPase activity as described in Example 7. […] The expression of Trim1 and Trim2 constructs was analyzed in COS-1 cells cultured in 10 cm plates. After 5 days of incubation, 1× supernatants were examined via ELISA (using anti-CD39) and the phosphate-release assay described in Example 7. […] Expression levels, however, appeared to be reduced 3-4 fold.

[2] = TLC assay for ADPase activity; assay type: biochemical
Method: Following growth in selective medium, CM from CHO cell cultures was analyzed for ATPase and ADPase activities. ADPase assays (Marcus et al., J. Clin. Invest. 88:1690, 1991) were primarily used in determining enzyme kinetics and pharmacokinetics. Test samples were incubated with 50 μM [^14C] ADP (NEN Life Science Products) in assay buffer (15 mM Tris, 134 mM NaCl, 5 mM glucose, pH 7.4, containing 10 μM Ap5A (P^1,P^5-di[adenosine-5′]pentaphosphate, 1 mM ouabain, 10 μM dipyridamole, and 3 mM CaCl2) in a total volume of 50 μl (5 min, 37° C.). Reactions were stopped by placement on ice and addition of 10 μl “stop solution” (160 mM disodium EDTA, pH 7.0, 17 mM ADP, 0.15 M NaCl) to block further metabolism of ADP. Nucleotides, nucleosides, and bases were separated by TLC using isobutanol/1-pentanol/ethylene glycol monoethyl ether/NH4OH/H2O (90:60:180:90:120). Radioactivity was quantified by radio TLC scanning (RTLC multiscanner; Packard, Meriden, Conn.). Results were calculated as averages of duplicate to quadruplicate measurements after subtraction of buffer blanks (consistently <1% of total radioactivity). Data were expressed as percentage of ADP metabolized or as pmol ADP metabolized per minute per μl CM. A unit of activity is the quantity of enzyme which will degrade 1 μmol of ADP in 1 min at 37° C. Identical assays were performed using ATP as a substrate in order to examine the kinetics of the ATPase activity of CD39.
Using the TLC assay system described in Example 12B, the ADPase activity of the membrane-bound HUVEC ecto-ADPase was determined at different pHs in buffers containing 100 mM bis-trispropane (Sigma, St. Louis, Mo.). […] Kinetic constants for CD39 metabolism of ATP and ADP were determined by measuring the initial rates of reaction as analyzed in the TLC system.

[3] = Bleeding time and tolerability in pigs; assay type: in vivo, Yorkshire-Hampshire pigs
Method: Aspirin was administered orally on a daily basis. Placebo controls consisted of aspirin. Saline controls and solCD39 were administered as a single bolus. Time points were measured following this administration. Blood samples were obtained via an external jugular vein catheter. […] ADP-induced platelet aggregation was measured at specific time intervals following administration. The concentration of CD39 in serum as a function of time was measured using an ELISA assay.

murine platelets = assay: Ex vivo aggregation of murine platelets; assay type: in vivo, C57BL/6J mice; conditions: PRP 1 hour after soluble CD39 4 mg/kg or aspirin 5 mg/kg
Method: C57BL/6J mice (6-8 wk) were obtained from Jackson Laboratories (Bar Harbor, Me.). […] 80 μL of 3.8% trisodium citrate was added to each mL of blood. […] The PRP contained 400-700×10^3 platelets per μL. All experiments were completed within 2 hours of blood collection. PRP (200 μL) was preincubated, for 3 min. at 37° C., with 100 μL Tris-buffered saline buffer ([…], 5 mM glucose, pH 7.4) in an aggregometer cuvette (Lumiaggregometer; Chrono-Log, Havertown, Pa.), and the platelet agonists ADP, collagen, or sodium arachidonate were added at the final concentrations indicated.

mouse platelets = assay: Reversal of ADP-induced aggregation of mouse platelets in vitro; assay type: cell-based; conditions: 5 μM ADP; soluble CD39 2.5 or 1.25 μg/ml
Method: ADP (5 μM) was added to mouse platelets in vitro to induce an aggregation response. Soluble CD39 (2.5 μg/ml or 1.25 μg/ml) was added at the peak of the aggregation response.

[4] = Mouse lung ischemia-reperfusion survival model; assay type: in vivo, C57BL/6 mice; conditions: 8 mg/kg i.v.
Method: C57BL/6 mice were anesthetized and ventilated, and their thoraces were opened to surgically expose both pulmonary hila. Either physiological saline or soluble CD39 (8 mg/kg) was administered intravenously, after which the left pulmonary hilum was cross-clamped for one hour. The cross-clamp was removed for three hours of reperfusion, and then a cross-clamp was applied to the right hilum for a thirty minute observation period. This latter maneuver effectively removed the normal lung from circulation, so that the mouse must survive on the function of the post-ischemic left lung. The results are shown, in the form of a Kaplan-Meier survival plot, in FIG. 23.

B1: solCD39: recombinant soluble human CD39, untagged: 12 mature huIL2 residues, three amino acid linker, sol CD39 (SEQ ID NO:7) (protein)
chain: MALWIDRMQLLSCIALSLALVTNSAPTSSSTKKTQLTSSTQNKALPENVKYGIVLDAGSSHTSLYIYKWPAEKENDTGVVHQVEECRVKGPGISKFVQKVNEIGIYLTDCMERAREVIPRSQHQETPVYLGATAGMRLLRMESEELADRVLDVVERSLSNYPFDFQGARIITGQEEGAYGWITINYLLGKFSQKTRWFSIVPYETNNQETFGALDLGGASTQVTFVPQNQTIESPDNALQFRLYGKDYNVYTHSFLCYGKDQALWQKLAKDIQVASNEILRDPCFHPGYKKVVNVSDLYKTPCTKRFEMTLPFQQFEIQGIGNYQQCHQSILELFNTSYCPYSQCAFNGIFLPPLQGDFGAFSAFYFVMKFLNLTSEKVSQEKVTEMMKKFCAQPWEEIKTSYAGVKEKYLSEYCFSGTYILSLLLQGYHFTADSWEHIHFIGKIQGSDAGWTLGYMLNLTNMIPAEQPLSTPLSHST
[1]; 10 μL
  ATPase activity, CPM × 10^3 (net counts): 20.1 CPM × 10^3
[1]; 20 μL
  ATPase activity, CPM × 10^3 (net counts): 36.0 CPM × 10^3
[1]; 30 μL
  ATPase activity, CPM × 10^3 (net counts): 51.0 CPM × 10^3
[1]; specific activity in COS-1 CM, concentration by ELISA
  Activity (pmol ATP/min/μg) × 10^3: 5.67 (pmol ATP/min/μg) × 10^3
[2]; 2×10^−9 M solCD39
  Vmax for ADP: 72 pmol/min
  kcat (ADP): 12 s⁻¹
[2]; purified recombinant solCD39
  specific activity for ADP: 11 U/mg
[3]; pig, in vivo
  anemia or thrombocytopenia: did not induce
[3]; pigs, 72-670 μg/kg bolus
  tolerability: well tolerated
Murine platelets; 2.5 μg/ml collagen
  ex vivo platelet aggregation, collagen: attenuated
Murine platelets; 10 μM ADP
  ex vivo platelet aggregation, ADP: abrogated
Murine platelets; 0.1 mM sodium arachidonate
  ex vivo platelet aggregation, arachidonate: attenuated
Mouse platelets
  aggregation response when added at the peak: immediately reversed
[4]
  survival at thirty minutes on post-ischemic lung: survived
